Consider 7 molecules from paper PMC7452893 (2020).

First the molecules themselves.
B1: MD62 (antibody, V domains shown)
VH: EVQLVQSGGGLIQPGGSLRLSCAASGVTVSSNYMTWVRQAPGKGLEWVSLIYSGGSTYYADSVKGRFTISRDNSKNTLYLQMNSLRAEDTAVYYCARDLQYYGMDVWGQGTMVTVSS
VL: AIRMTQSPSSVSASVGDRVTITCRASQDIGSWLGWYQQKPGKAPKLLIYAASSLAGGVPSRFSGSGSGTDFTLTISSLQPEDFATYYCQQANSFPLTFGGGTKLEIK
modifications: biotinylated when immobilised on the BLI sensor
B2: MD67 (antibody, V domains shown)
VH: EVQLVESGGGLVQPGGSLRLSCAASGFTVSSNYMTWVRQAPGKGLEWVSVIYSGGSTFYADSVKGRFTISRHNSKNTLYLQMNSLRAEDTAVYYCARDLSVRGGMDVWGQGTTVTVSS
VL: not shown
modifications: biotinylated when immobilised on the BLI sensor
B3: MD45 (antibody, V domains shown)
VH: B2 VH with E6Q, T113M
VL: EIVLTQSPGTLSLSPGERATLSCRASQSVNSSYLAWYQQKPGQAPRLLIYGASNRATGIPDRFSGSGSGTDFTLTISRLEPEDFAVYYCQQYGVSPEIIFGQGTRLEIK
modifications: biotinylated when immobilised on the BLI sensor
B4: MD63 (antibody, V domains shown)
VH: QVTLKESGGGVVQPGRSLRLSCAASGFTFSSYAMHWVRQAPGKGLEHVSAISSDGGITYFADSVKGRFTISRDNSRNTLFLQMSSLRVEDTAVYYCVKDQDSNSWYDAFDIWGRGTMVTVSS
VL: not shown
modifications: biotinylated when immobilised on the BLI sensor
B5: MD29 (antibody, V domains shown)
VH: QMQLVQSGGGLVQPGGSLRLSCSASGFTFSTYVMNWVRQAPGKGPEHVSGISSDGGITYYADSVKGRFTISRDNSKNTLYLQMSSLRVEDTAVYYCVKDQDSSSWYDAFDIWGQGTMVTVSS
VL: NIRLTQSPSSLSASVGDRVTITCRATQSISSYLNWYQQKPGKAPNLLIYAASSLQSGVPSRFSGSGSGTDFTLTISSLQPEDFATYYCHQTYTSPYTFGQGTKLEIK
modifications: biotinylated when immobilised on the BLI sensor
B6: MD17 (antibody, V domains shown)
VH: B5 VH with Q1E, M2V, V5L, Q6E, P45L
VL: DIVMTQSPSSLSASVGDRVTITCRASQSISNYLNWYQQKLGKAPKLLTYAASRLQSGVPSRFSASGSGTEFTLTISSLQPEDFATYYCQQSYTTPLTFGGGTKLEIK
modifications: biotinylated when immobilised on the BLI sensor
B7: MD47 (antibody, V domains shown)
V domain 1: QMQLVQSGGGLVQPGGSLRLSCAASGFTFSSYAMSWVRQAPGKGLEWVSAISSGGSTYYADSVKGRFTISRDNSKNTLYLQMNSLRAEDTAVYYCAKDLVTAPSYEAFDIWGQGTMITVSS
V domain 2: NFMLTQPPSVSVAPGKTARITCGGNNIGSKSVHWYQQKPGQAPVLVIYYDSDRPSGIPERFSGSNSGNTATLTISRVEAGDEADYYCQVWDSSSHHHVVFGGGTKGTVL
modifications: biotinylated when immobilised on the BLI sensor

Positions count from the first letter of the chain named.

In one experiment the target is T1, SARS-CoV-2 spike receptor-binding domain (RBD), monomeric (SARS-CoV-2, UniProt P0DTC2). The experiment can be described thus: BLI.
Consider B1, for which the koff (as a rule, the first-order rate constant of dissociation) worked out at 0.00063 s⁻¹.
In turn, B2 came in with a dissociation rate constant (koff) of 0.00075 s⁻¹.
In turn, B3 displayed a koff of 0.00055 s⁻¹.
The same measure, in the same setting: to B4 belongs 0.00053 s⁻¹; to B5, 0.00014 s⁻¹.
In turn, B6 had a koff of 0.00026 s⁻¹.
B7 showed a koff of 9e-05 s⁻¹.

Another experiment concerns the target T1, SARS-CoV-2 spike receptor-binding …. The experiment in a line: BLI. This is another data set of the same source. (BLI is a label-free optical method that tracks binding on a fibre tip over time.)
B1: the Kd – broadly, a measure of binding affinity in units of concentration – is 4.8 nM.
B3 came in with a Kd of 5.6 nM.
Still for that read-out and setting: for B4 the value was 3.4 nM.
Same read-out and setting: to B6 belongs 2.6 nM; to B7, 0.5 nM.
